± gives the standard error. For part of these data: Fewer inactive variants are shown than the library holds.
B1: glmS ribozyme (parent)
chain: AUAAAAGCGCCAGAACUACAGAAAUGUAGUUGACGAGGAGGAGGUUUAUCGAAUUUUCGGCGGAUGCCUCCAAA

Assays:
Settings in all cases: with glucosamine-6-phosphate
[1] = variants of: B1; assay: kcat; higher = faster cleavage; RNA array
Procedure, shortened: (§1)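 Over ~14 h at 37 °C, tiles were imaged as glucosamine-6-phosphate (40 μM to 10 mM) in HEPES/KCl/Mg(OAc)2 buffer flowed across sequenced MiSeq chips. The chips carried barcoded ribozyme variants transcribed in situ by E. coli RNA polymerase and tracked with a hybridised Cy3 probe. After normalisation to baseline and to non-cleaving reference variants, one- or two-exponential decay fits of per-tile medians gave kobs. kcat and KM followed from weighted Michaelis–Menten fits across concentrations.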

[2] = variants of: B1; assay: KM; higher = weaker cofactor use; RNA array
Procedure, shortened: as §1

[3] = variants of: B1; assay: self-cleavage kobs at 160 uM GlcN6P; higher = faster cleavage; RNA array
Procedure, shortened: as §1

[4] = variants of: B1; assay: self-cleavage kobs at 640 uM GlcN6P; higher = faster cleavage; RNA array
Procedure, shortened: as §1

[5] = variants of: B1; assay: self-cleavage kobs at 2500 uM GlcN6P; higher = faster cleavage; RNA array
Procedure, shortened: as §1

[6] = variants of: B1; assay: self-cleavage kobs at 10000 uM GlcN6P; higher = faster cleavage; RNA array
Procedure, shortened: as §1

[7] = variants of: B1; assay: self-cleavage kobs at 40 uM GlcN6P; higher = faster cleavage; RNA array
Procedure, shortened: as §1

Variant	kcat [1] [s⁻¹]	KM [2] [µM]	self-cleavage kobs at 160 uM GlcN6P [3] [s⁻¹]	self-cleavage kobs at 640 uM GlcN6P [4] [s⁻¹]	self-cleavage kobs at 2500 uM GlcN6P [5] [s⁻¹]	self-cleavage kobs at 10000 uM GlcN6P [6] [s⁻¹]	self-cleavage kobs at 40 uM GlcN6P [7] [s⁻¹]
U30C U69C	0.00014 ± 1.4e-05	591 ± 210	3.85e-05 ± 1.7e-05	6.58e-05 ± 1e-05	0.000129 ± 1.3e-05	0.000122 ± 1.4e-05	–
U31C C61A	3.08e-05 ± 1.2e-05	–	–	–	–	< 1e-05	–
U31A C67G	0.000586 ± 0.00013	3660 ± 1500	–	0.0001 ± 2.6e-05	0.000201 ± 4.4e-05	0.000456 ± 7.3e-05	–
U31C C50U	< 1e-05	–	–	–	–	–	–
U31C U55C	0.00793 ± 0.00044	3750 ± 300	0.000317 ± 6.4e-05	0.00116 ± 0.00021	0.00284 ± 0.00079	0.00585 ± 0.00073	8.92e-05 ± 2.1e-05
U31C U55G	0.0059 ± 0.0019	2750 ± 1200	0.000291 ± 3.8e-05	0.00104 ± 0.00018	0.0022 ± 0.00033	0.00547 ± 0.00061	0.000126 ± 1.5e-05
U31A C68U	0.00143 ± 0.00043	2740 ± 1200	6.73e-05 ± 1.4e-05	0.000477 ± 9.5e-05	0.000776 ± 0.00018	0.00105 ± 0.00019	–
U31A C68A	2.86e-05 ± 9.3e-06	–	–	–	4.06e-05 ± 1.6e-05	–	< 1e-05
U31G A48U U55G A64G	0.000666 ± 0.00016	3200 ± 1500	–	0.0001 ± 2.9e-05	0.000437 ± 0.00013	0.000484 ± 9.1e-05	–
U31C C71A	0.000686 ± 0.00019	1470 ± 630	7.42e-05 ± 8.6e-06	0.00018 ± 1.9e-05	0.000669 ± 9.6e-05	0.00057 ± 7.8e-05	3.6e-05 ± 1.1e-05
U31A U54A	0.011 ± 0.003	1640 ± 590	0.00112 ± 0.00023	0.00342 ± 0.00062	0.00508 ± 0.0013	0.0126 ± 0.0031	0.000241 ± 4.8e-05
U31C U57A	2.49e-05 ± 2.1e-06	–	–	–	2.32e-05 ± 9.8e-06	–	–
U31C C34G	1.37e-05 ± 8.9e-07	1370 ± 240	–	–	–	–	–
U31A G66U	0.000713 ± 5.1e-05	1380 ± 190	7.61e-05 ± 1.5e-05	0.000206 ± 3.9e-05	0.000466 ± 7.9e-05	0.000631 ± 7.6e-05	2.99e-05 ± 1.3e-05
U31A U57G	4.33e-05 ± 3.3e-06	2970 ± 780	–	–	–	3.33e-05 ± 1.1e-05	–
U31G A52G	0.000431 ± 4.6e-05	2820 ± 530	–	8.36e-05 ± 1.2e-05	0.000178 ± 3.1e-05	0.000352 ± 4.6e-05	–
